Experimental data from paper PMC4399498 (Nature communications, 2014).

Target: the molecule itself
Test: crystal structure

B1: KdpE-E216A (natural protein, E. coli, UniProt P21866 1-225, looked up)
chain: MTNVLIVEDEQAIRRFLRTALEGDGMRVFEAETLQRGLLEAATRKPDLIILDLGLPDGDGIEFIRDLRQWSAVPVIVLSARSEESDKIAALDAGADDYLSKPFGIGELQARLRVALRRHSATTAPDPLVKFSDVTVDLAARVIHRGEEEVHLTPIEFRLLAVLLNNAGKVLTQRQLLNQVWGPNAVEHSHYLRIYMGHLRQKLEQDPARPRHFITATGIGYRFML
binding result: binds
